According to patent publication US20110086806A1 (published 2011):
Residue numbers refer to the chain shown, from its start.

T1: recombinant human IL-23R/Fc chimera (R&D Systems) (human, UniProt Q5VWK5 24-355)
T1 construct: Bought; also called rhIL23RFc
T1 sequence (looked up): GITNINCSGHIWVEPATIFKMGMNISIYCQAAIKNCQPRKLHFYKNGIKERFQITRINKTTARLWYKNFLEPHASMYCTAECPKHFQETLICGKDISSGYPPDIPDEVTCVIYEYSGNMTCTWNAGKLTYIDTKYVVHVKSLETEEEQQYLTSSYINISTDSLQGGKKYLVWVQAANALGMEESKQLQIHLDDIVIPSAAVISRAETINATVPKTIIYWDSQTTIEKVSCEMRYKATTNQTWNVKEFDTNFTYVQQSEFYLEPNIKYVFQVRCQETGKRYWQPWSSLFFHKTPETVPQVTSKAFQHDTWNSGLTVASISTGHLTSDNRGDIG

B1: 101-51-1A3 ATRIMER complex (designed binder)
chain: EPPTQKPKKIVNAKKDVVNTKMFEELKSRLDTLAQEVALLKEQQALQTVCLKGTKVHMKCFLAFTQTKTFHEASEDCISRGGTLSTPQTGSENDALYEYLRQSVGNEAEIWLGLNGSALTNTWVDMTGARIAYKNWEHQPVYQPGGGWGVFGENCAVLSGAANGKWFDKRCRDQLPYICQFGIV
modifications: Forms a homotrimer through the tetranectin coiled coil; one protomer is given.
notes: not shown: C-terminal tag: His/Myc (pANA4) or HA-StrepII (pANA10)
B2: 101-51-1A10 ATRIMER complex (designed binder)
chain: B1 chain with Q139P, P140L, V141P, Y142P, G145S, W148F, V150Y
modifications: Forms a homotrimer through the tetranectin coiled coil; one protomer is given.
notes: as for B1
B3: 101-113-6C102 ATRIMER complex (designed binder)
chain: B1 chain with A118N, L119V, N121Q, H138P, Q139P, V141P, Y142H, Q143H, G145Q, W148F
notes: not shown: C-terminal tag
B4: 101-51-1A5 ATRIMER complex (designed binder)
chain: B1 chain with H138N, Q139G, P140H, V141E, Y142P, G145R, W148F, V150Y
modifications: Forms a homotrimer through the tetranectin coiled coil; one protomer is given.
notes: as for B1
B5: 101-51-1A8 ATRIMER complex (designed binder)
chain: B1 chain with H138R, Q139T, V141P, Y142W, G145E, W148F, V150Y
modifications: Forms a homotrimer through the tetranectin coiled coil; one protomer is given.
notes: as for B1
B6: 105-08-1D3 ATRIMER complex (designed binder)
chain: EPPTQKPKKIVNAKKDVVNTKMFEELKSRLDTLAQEVALLKEQQALQTVCLKGTKVHMKCFLAFTQTKTFHEASEDCISRGGTLSTPQTGSENDALYEYLRQSVGNEAEIWLGLNGSKVTETWVDMTGARIAYKNWETEITAQPDGGFGYFGENCAVLSGAANGKWFDKRCRDQLPYICQFGIV
B7: 101-80-5E8 ATRIMER complex (designed binder)
chain: B1 chain with H138P, Q139P, P140E, V141P, Y142L, Q143H, G145M, W148F
B8: 101-51-1A9 ATRIMER complex (designed binder)
chain: B1 chain with H138P, Q139A, P140R, V141Q, Y142P, W148F, V150Y
B9: 105-08-1A3 ATRIMER complex (designed binder)
chain: B6 chain with K118P, V119R, E121D, F148W, Y150V
modifications: Homotrimer of three identical chains (ATRIMER complex); one chain is given.
notes: as for B1
B10: 105-08-1A4 ATRIMER complex (designed binder)
chain: B6 chain with K118A, E121N
B11: 101-51-1A6 ATRIMER complex (designed binder)
chain: B1 chain with H138N, Q139N, P140L, V141S, Y142A, G145R, W148F, V150Y
modifications: Forms a homotrimer through the tetranectin coiled coil; one protomer is given.
notes: as for B1
B12: 101-54-4B10 ATRIMER complex (designed binder)
chain: B1 chain with H138R, Q139P, V141L, W148F, V150Y
B13: 101-54-4A12 ATRIMER complex (designed binder)
chain: EPPTQKPKKIVNAKKDVVNTKMFEELKSRLDTLAQEVALLKEQQALQTVCLKGTKVHMKCFLAFTQTKTFHEASEDCISRGGTLSTPQTGSENDALYEYLRQSVGNEAEIWLGLNGSRRSGVWVDMTGARIAYKNWEPPGPAHPQGGFGVFGENCAVLSGAANGKWFDKRCRDQLPYICQFGIV
notes: also called 101-54-4Al2
B14: 101-54-4B3 ATRIMER complex (designed binder)
chain: B1 chain with H138L, Q139P, V141P, Y142G, Q143H, G145Q, W148F
B15: 105-78-2E6 ATRIMER complex (designed binder)
chain: B6 chain with K118L, V119R, E121N, Y150V
B16: 105-20-2F10 ATRIMER complex (designed binder)
chain: B6 chain with K118A, V119R, E121D
notes: as for B1
B17: 105-20-1B4 ATRIMER complex (designed binder)
chain: B6 chain with K118S, V119R, E121N, F148W
modifications: ATRIMER complex: homotrimer of three copies of this chain, joined by the tetranectin coiled coil
notes: not shown: C-terminal tag: Myc/His (pANA4) or HA-StrepII (pANA10)
B18: 105-20-2C7 ATRIMER complex (designed binder, not shown: small tags and cut ends)
chain: B6 chain with K118V, V119T, E121D
B19: 105-59-3A5 ATRIMER complex (designed binder)
chain: B6 chain with K118L, V119L, E121N, Y150V
modifications: Homotrimer of three identical chains (ATRIMER complex); one chain is given.
notes: as for B1
B20: 105-59-3B5 ATRIMER complex (designed binder)
chain: B6 chain with K118P, V119I, E121D, Y150V
B21: 105-20-2C11 ATRIMER complex (designed binder)
chain: B6 chain with K118V, V119R, E121D, F148W
notes: as for B1
B22: 105-08-2H12 ATRIMER complex (designed binder, not shown: small tags and cut ends)
chain: B6 chain with K118P, V119R
B23: 105-20-2C4b ATRIMER complex (designed binder)
chain: B6 chain with K118V, V119K, E121D, F148W
B24: 105-08-2H2 ATRIMER complex (designed binder)
chain: B6 chain with K118P, V119T, E121D, F148W
B25: 105-20-2G5 ATRIMER complex (designed binder)
chain: B6 chain with K118R, V119R, E121D, F148W
B26: 105-08-2G4 ATRIMER complex (designed binder)
chain: B6 chain with K118P, V119R, E121G
B27: 105-61-4G3 ATRIMER complex (designed binder)
chain: B6 chain with K118L, V119R, E121D, Y150V
notes: also called 61-p4G3
B28: 105-08-2H4 ATRIMER complex (designed binder)
chain: B6 chain with K118V, V119R, E121D
B29: 105-08-2H11 ATRIMER complex (designed binder)
chain: B6 chain with K118P, V119R, E121D, F148W
notes: as for B1
B30: 105-08-2H3 ATRIMER complex (designed binder)
chain: B6 chain with K118S, V119L, E121N, F148W
modifications: ATRIMER complex: homotrimer of three copies of this chain, joined by the tetranectin coiled coil
notes: as for B17
B31: 105-20-2C4a ATRIMER complex (designed binder)
chain: B6 chain with K118A, V119K, E121D, F148W
modifications: ATRIMER complex: homotrimer of three copies of this chain, joined by the tetranectin coiled coil
notes: as for B17
B32: 105-20-1A6 ATRIMER complex (designed binder)
chain: B6 chain with K118A, V119K, E121G, F148W
B33: 105-08-2H6 ATRIMER complex (designed binder)
chain: B6 chain with K118P, E121G
B34: 105-61-4G5 ATRIMER complex (designed binder)
chain: B6 chain with K118P, V119L, E121N, Y150V
B35: 105-78-2D1 ATRIMER complex (designed binder)
chain: B6 chain with K118L, V119R, E121H, Y150V
B36: 105-08-2H10 ATRIMER complex (designed binder)
chain: B6 chain with K118N, V119H, E121D
B37: 105-08-2G6 ATRIMER complex (designed binder)
chain: B6 chain with K118L, V119L, E121D, F148W

target: T1, recombinant human IL-23R/Fc chimera …; assay: SPR
Protocol: A Biacore 3000 biosensor (GE Healthcare) was used to evaluate the interaction of human IL-23R and receptor binders. Immobilization of an anti-human IgG Fc antibody (GE Healthcare) to the CM5 chip (GE Healthcare) was performed using standard amine coupling chemistry, and this modified surface was used to capture a recombinant human IL-23R/Fc fusion protein (R&D Systems). A low-density receptor surface, less than 200 RU, was used for all of the analyses. ATRIMER™ polypeptide complex dilutions (1-500 nM) were injected over the IL-23R surface at 30 μl/min and kinetic constants were derived from the sensorgram data using the Biaevaluation software (version 3.1, GE Healthcare). Data collection was 3 minutes for the association and 5 minutes for dissociation. The anti-human IgG surface was regenerated with a 30s pulse of 3M magnesium chloride. All sensorgrams were double-referenced against an activated and blocked flow-cell as well as buffer injections.

| Ka [M⁻¹] | Kd [nM] | koff [s⁻¹] | kon [M⁻¹ s⁻¹] | Binder |
| --- | --- | --- | --- | --- |
| 1.77e+09 | 0.565 | 0.000262 | 463000 | B1 |
| 4.85e+08 | 2.06 | 0.000345 | 167000 | B2 |
| 9.62e+08 | 1.04 | 0.000283 | 271000 | B3 |
| 1.71e+09 | 0.584 | 0.000289 | 495000 | B4 |
| 6.62e+08 | 1.51 | 0.000396 | 262000 | B5 |
| 7.58e+08 | 1.32 | 0.000301 | 228000 | B6 |
| 2.89e+09 | 0.346 | 0.000391 | 1.13e+06 | B7 |
| 1.05e+09 | 0.955 | 0.000329 | 345000 | B8 |
| 2.11e+09 | 0.473 | 0.000348 | 735000 | B9 |
| 8e+08 | 1.25 | 0.000312 | 250000 | B10 |
| 1.34e+09 | 0.746 | 0.000415 | 557000 | B11 |
| 1.11e+09 | 0.897 | 0.000429 | 479000 | B12 |
| 2.16e+09 | 0.463 | 0.000573 | 1.24e+06 | B13 |
| 3.12e+09 | 0.321 | 0.000364 | 1.13e+06 | B14 |

target: T1, recombinant human IL-23R/Fc chimera …; assay: competition ELISA vs IL-23
Protocol: Assays were performed generally as follows. Individual wells in Immulon HB2 plates were incubated overnight at 4° C. with 100 μL PBS containing 100 ng of an anti-human IgG Fc (R&D MAB 110 clone 97924). Plates were washed five times with PBS/0.05% Tween 20, and wells were incubated for 1.5 h at RT with 100 μL each of PBS containing 50 ng of recombinant human IL-23R/Fc. […] Competitor was included at a final concentration of 1 μg/mL. After incubation, plates were washed as described and wells were incubated for 40 min at RT with 100 μL each of PBS containing a 1:5000 dilution of streptavidin-HRP conjugate (Pierce catalog no. 21130). After washing, wells were incubated with 100 μL each of TMB (BioFX Lab catalog no. TMBH-1000-0) for up to 30 min at RT. Reactions were stopped with an equal volume of 0.2 M sulfuric acid.

| Ratio IC50 to 056-53.H4E IC50 | Binder |
| --- | --- |
| 1.6 | B1 |
| 1 | B15 |
| 4.2 | B16 |
| 8.7 | B2 |
| 3 | B17 |
| 3.5 | B18 |
| 1.2 | B19 |
| 0.8 | B20 |
| 4.8 | B21 |
| 3.3 | B22 |
| 2 | B3 |
| 1 | B4 |
| 4.2 | B23 |
| 4 | B24 |
| 3.7 | B5 |
| 0.4 | B6 |
| 5.3 | B25 |
| 2.5 | B26 |
| 0.8 | B27 |

| Ratio IC50 to 056-53.H4E IC50 | Binder |
| --- | --- |
| 5 | B28 |
| 0.6 | B7 |
| 4.3 | B29 |
| 2.2 | B8 |
| 2.9 | B30 |
| 1.1 | B9 |
| 2.9 | B31 |
| 1.6 | B10 |
| 2.6 | B11 |
| 1.4 | B12 |
| 1.1 | B13 |
| 6.6 | B32 |
| 2 | B33 |
| 1 | B34 |
| 1.3 | B35 |
| 6.5 | B36 |
| 1 | B14 |
| 5.2 | B37 |
